According to patent US20260001928A1 (CORTERIA PHARMACEUTICALS, priority 2022, published 2026):
*1 amine or outer side, *2 acyl side, *3 side chain or, on linkers, in order; H or OH if unused. Where no end group is shown, it is not given here. Side-chain parts run from the residue outwards. [ ]: non-standard residue; d: D form. The star is where a group is joined. C18 diacid = O=C(O)CCCCCCCCCCCCCCCCC(=O)*; C16 diacid = O=C(O)CCCCCCCCCCCCCCC(=O)*; γGlu = O=C(O)[C@H](CCC(=O)[*:2])N[*:1]; NMeI = CC[C@H](C)[C@H](NC)C(=O)O; Nva = CCC[C@H](N)C(=O)O; Abu = CC[C@H](N)C(=O)O; Pentanoyl = CCCCC(=O)*; AEEA = NCCOCCOCC(=O)O; Aib = CC(C)(N)C(=O)O

T1: CRF1R receptor (UniProt P34998 24-415, limits assumed)
T1 sequence (looked up): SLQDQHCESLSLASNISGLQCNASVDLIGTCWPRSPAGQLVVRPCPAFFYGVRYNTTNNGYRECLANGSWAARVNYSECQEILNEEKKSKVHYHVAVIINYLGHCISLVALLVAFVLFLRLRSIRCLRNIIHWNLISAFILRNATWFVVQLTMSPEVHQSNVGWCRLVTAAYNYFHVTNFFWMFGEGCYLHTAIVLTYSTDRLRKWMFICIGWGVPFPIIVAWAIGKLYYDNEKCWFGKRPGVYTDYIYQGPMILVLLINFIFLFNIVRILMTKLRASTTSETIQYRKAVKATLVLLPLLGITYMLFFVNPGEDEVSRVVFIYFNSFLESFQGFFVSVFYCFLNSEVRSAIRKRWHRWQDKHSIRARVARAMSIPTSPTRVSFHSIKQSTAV

B1: SEQ ID NO 100 (peptide)
peptide: Ac-IVLSLD[dV]PIKLK([AEEA-AEEA-γGlu-C18 diacid])KILLEQEKQKKQREQAETNAQILAQV-NH2
SMILES: CC[C@H](C)[C@H](NC(C)=O)C(=O)N[C@H](C(=O)N[C@@H](CC(C)C)C(=O)N[C@@H](CO)C(=O)N[C@@H](CC(C)C)C(=O)N[C@@H](CC(=O)O)C(=O)N[C@@H](C(=O)N1CCC[C@H]1C(=O)N[C@H](C(=O)N[C@@H](CCCCN)C(=O)N[C@@H](CC(C)C)C(=O)N[C@@H](CCCCNC(=O)COCCOCCNC(=O)COCCOCCNC(=O)CC[C@H](NC(=O)CCCCCCCCCCCCCCCCC(=O)O)C(=O)O)C(=O)N[C@@H](CCCCN)C(=O)N[C@H](C(=O)N[C@@H](CC(C)C)C(=O)N[C@@H](CC(C)C)C(=O)N[C@@H](CCC(=O)O)C(=O)N[C@@H](CCC(N)=O)C(=O)N[C@@H](CCC(=O)O)C(=O)N[C@@H](CCCCN)C(=O)N[C@@H](CCC(N)=O)C(=O)N[C@@H](CCCCN)C(=O)N[C@@H](CCCCN)C(=O)N[C@@H](CCC(N)=O)C(=O)N[C@@H](CCCNC(=N)N)C(=O)N[C@@H](CCC(=O)O)C(=O)N[C@@H](CCC(N)=O)C(=O)N[C@@H](C)C(=O)N[C@@H](CCC(=O)O)C(=O)N[C@H](C(=O)N[C@@H](CC(N)=O)C(=O)N[C@@H](C)C(=O)N[C@@H](CCC(N)=O)C(=O)N[C@H](C(=O)N[C@@H](CC(C)C)C(=O)N[C@@H](C)C(=O)N[C@@H](CCC(N)=O)C(=O)N[C@H](C(N)=O)C(C)C)[C@@H](C)CC)[C@@H](C)O)[C@@H](C)CC)[C@@H](C)CC)C(C)C)C(C)C
B2: SEQ ID NO 105 (peptide)
peptide: Ac-IVLSLD[dV]PIKLK([AEEA-AEEA-γGlu-C18 diacid])KILLEQEKQKKQREQAETN[Nva]QILAQV-NH2
SMILES: CCC[C@H](NC(=O)[C@H](CC(N)=O)NC(=O)[C@@H](NC(=O)[C@H](CCC(=O)O)NC(=O)[C@H](C)NC(=O)[C@H](CCC(N)=O)NC(=O)[C@H](CCC(=O)O)NC(=O)[C@H](CCCNC(=N)N)NC(=O)[C@H](CCC(N)=O)NC(=O)[C@H](CCCCN)NC(=O)[C@H](CCCCN)NC(=O)[C@H](CCC(N)=O)NC(=O)[C@H](CCCCN)NC(=O)[C@H](CCC(=O)O)NC(=O)[C@H](CCC(N)=O)NC(=O)[C@H](CCC(=O)O)NC(=O)[C@H](CC(C)C)NC(=O)[C@H](CC(C)C)NC(=O)[C@@H](NC(=O)[C@H](CCCCN)NC(=O)[C@H](CCCCNC(=O)COCCOCCNC(=O)COCCOCCNC(=O)CC[C@H](NC(=O)CCCCCCCCCCCCCCCCC(=O)O)C(=O)O)NC(=O)[C@H](CC(C)C)NC(=O)[C@H](CCCCN)NC(=O)[C@@H](NC(=O)[C@@H]1CCCN1C(=O)[C@H](NC(=O)[C@H](CC(=O)O)NC(=O)[C@H](CC(C)C)NC(=O)[C@H](CO)NC(=O)[C@H](CC(C)C)NC(=O)[C@@H](NC(=O)[C@@H](NC(C)=O)[C@@H](C)CC)C(C)C)C(C)C)[C@@H](C)CC)[C@@H](C)CC)[C@@H](C)O)C(=O)N[C@@H](CCC(N)=O)C(=O)N[C@H](C(=O)N[C@@H](CC(C)C)C(=O)N[C@@H](C)C(=O)N[C@@H](CCC(N)=O)C(=O)N[C@H](C(N)=O)C(C)C)[C@@H](C)CC
B3: SEQ ID NO 104 (peptide)
peptide: Ac-IVLSLD[dV]PIKLK([AEEA-AEEA-γGlu-C18 diacid])KILLEQEKQKKQREQAETN[Abu]QILAQV-NH2
SMILES: CC[C@H](NC(=O)[C@H](CC(N)=O)NC(=O)[C@@H](NC(=O)[C@H](CCC(=O)O)NC(=O)[C@H](C)NC(=O)[C@H](CCC(N)=O)NC(=O)[C@H](CCC(=O)O)NC(=O)[C@H](CCCNC(=N)N)NC(=O)[C@H](CCC(N)=O)NC(=O)[C@H](CCCCN)NC(=O)[C@H](CCCCN)NC(=O)[C@H](CCC(N)=O)NC(=O)[C@H](CCCCN)NC(=O)[C@H](CCC(=O)O)NC(=O)[C@H](CCC(N)=O)NC(=O)[C@H](CCC(=O)O)NC(=O)[C@H](CC(C)C)NC(=O)[C@H](CC(C)C)NC(=O)[C@@H](NC(=O)[C@H](CCCCN)NC(=O)[C@H](CCCCNC(=O)COCCOCCNC(=O)COCCOCCNC(=O)CC[C@H](NC(=O)CCCCCCCCCCCCCCCCC(=O)O)C(=O)O)NC(=O)[C@H](CC(C)C)NC(=O)[C@H](CCCCN)NC(=O)[C@@H](NC(=O)[C@@H]1CCCN1C(=O)[C@H](NC(=O)[C@H](CC(=O)O)NC(=O)[C@H](CC(C)C)NC(=O)[C@H](CO)NC(=O)[C@H](CC(C)C)NC(=O)[C@@H](NC(=O)[C@@H](NC(C)=O)[C@@H](C)CC)C(C)C)C(C)C)[C@@H](C)CC)[C@@H](C)CC)[C@@H](C)O)C(=O)N[C@@H](CCC(N)=O)C(=O)N[C@H](C(=O)N[C@@H](CC(C)C)C(=O)N[C@@H](C)C(=O)N[C@@H](CCC(N)=O)C(=O)N[C@H](C(N)=O)C(C)C)[C@@H](C)CC
B4: SEQ ID NO 113 (peptide)
peptide: [NMeI]VLSLD[dV]PIKLK([AEEA-AEEA-γGlu-C18 diacid])KILLEQEKQKKQREQAETNAQILAQV-NH2
modifications: N-terminus assumed
SMILES: CC[C@H](C)[C@H](NC)C(=O)N[C@H](C(=O)N[C@@H](CC(C)C)C(=O)N[C@@H](CO)C(=O)N[C@@H](CC(C)C)C(=O)N[C@@H](CC(=O)O)C(=O)N[C@@H](C(=O)N1CCC[C@H]1C(=O)N[C@H](C(=O)N[C@@H](CCCCN)C(=O)N[C@@H](CC(C)C)C(=O)N[C@@H](CCCCNC(=O)COCCOCCNC(=O)COCCOCCNC(=O)CC[C@H](NC(=O)CCCCCCCCCCCCCCCCC(=O)O)C(=O)O)C(=O)N[C@@H](CCCCN)C(=O)N[C@H](C(=O)N[C@@H](CC(C)C)C(=O)N[C@@H](CC(C)C)C(=O)N[C@@H](CCC(=O)O)C(=O)N[C@@H](CCC(N)=O)C(=O)N[C@@H](CCC(=O)O)C(=O)N[C@@H](CCCCN)C(=O)N[C@@H](CCC(N)=O)C(=O)N[C@@H](CCCCN)C(=O)N[C@@H](CCCCN)C(=O)N[C@@H](CCC(N)=O)C(=O)N[C@@H](CCCNC(=N)N)C(=O)N[C@@H](CCC(=O)O)C(=O)N[C@@H](CCC(N)=O)C(=O)N[C@@H](C)C(=O)N[C@@H](CCC(=O)O)C(=O)N[C@H](C(=O)N[C@@H](CC(N)=O)C(=O)N[C@@H](C)C(=O)N[C@@H](CCC(N)=O)C(=O)N[C@H](C(=O)N[C@@H](CC(C)C)C(=O)N[C@@H](C)C(=O)N[C@@H](CCC(N)=O)C(=O)N[C@H](C(N)=O)C(C)C)[C@@H](C)CC)[C@@H](C)O)[C@@H](C)CC)[C@@H](C)CC)C(C)C)C(C)C
B5: SEQ ID NO 122 (peptide)
peptide: Pentanoyl-VLSLD[dV]PIKLK([AEEA-AEEA-γGlu-C18 diacid])KILLEQEKQKKQREQAETNAQILAQV-NH2
SMILES: CCCCC(=O)N[C@H](C(=O)N[C@@H](CC(C)C)C(=O)N[C@@H](CO)C(=O)N[C@@H](CC(C)C)C(=O)N[C@@H](CC(=O)O)C(=O)N[C@@H](C(=O)N1CCC[C@H]1C(=O)N[C@H](C(=O)N[C@@H](CCCCN)C(=O)N[C@@H](CC(C)C)C(=O)N[C@@H](CCCCNC(=O)COCCOCCNC(=O)COCCOCCNC(=O)CC[C@H](NC(=O)CCCCCCCCCCCCCCCCC(=O)O)C(=O)O)C(=O)N[C@@H](CCCCN)C(=O)N[C@H](C(=O)N[C@@H](CC(C)C)C(=O)N[C@@H](CC(C)C)C(=O)N[C@@H](CCC(=O)O)C(=O)N[C@@H](CCC(N)=O)C(=O)N[C@@H](CCC(=O)O)C(=O)N[C@@H](CCCCN)C(=O)N[C@@H](CCC(N)=O)C(=O)N[C@@H](CCCCN)C(=O)N[C@@H](CCCCN)C(=O)N[C@@H](CCC(N)=O)C(=O)N[C@@H](CCCNC(=N)N)C(=O)N[C@@H](CCC(=O)O)C(=O)N[C@@H](CCC(N)=O)C(=O)N[C@@H](C)C(=O)N[C@@H](CCC(=O)O)C(=O)N[C@H](C(=O)N[C@@H](CC(N)=O)C(=O)N[C@@H](C)C(=O)N[C@@H](CCC(N)=O)C(=O)N[C@H](C(=O)N[C@@H](CC(C)C)C(=O)N[C@@H](C)C(=O)N[C@@H](CCC(N)=O)C(=O)N[C@H](C(N)=O)C(C)C)[C@@H](C)CC)[C@@H](C)O)[C@@H](C)CC)[C@@H](C)CC)C(C)C)C(C)C
B6: SEQ ID NO 45 (peptide)
peptide: Ac-VLSLD[dV]PIKLK([γGlu-C16 diacid])KILLEQEKQKKQREQAETN[Aib]QILAQV-NH2
SMILES: CC[C@H](C)[C@H](NC(=O)[C@H](CCC(N)=O)NC(=O)C(C)(C)NC(=O)[C@H](CC(N)=O)NC(=O)[C@@H](NC(=O)[C@H](CCC(=O)O)NC(=O)[C@H](C)NC(=O)[C@H](CCC(N)=O)NC(=O)[C@H](CCC(=O)O)NC(=O)[C@H](CCCNC(=N)N)NC(=O)[C@H](CCC(N)=O)NC(=O)[C@H](CCCCN)NC(=O)[C@H](CCCCN)NC(=O)[C@H](CCC(N)=O)NC(=O)[C@H](CCCCN)NC(=O)[C@H](CCC(=O)O)NC(=O)[C@H](CCC(N)=O)NC(=O)[C@H](CCC(=O)O)NC(=O)[C@H](CC(C)C)NC(=O)[C@H](CC(C)C)NC(=O)[C@@H](NC(=O)[C@H](CCCCN)NC(=O)[C@H](CCCCNC(=O)CC[C@H](NC(=O)CCCCCCCCCCCCCCC(=O)O)C(=O)O)NC(=O)[C@H](CC(C)C)NC(=O)[C@H](CCCCN)NC(=O)[C@@H](NC(=O)[C@@H]1CCCN1C(=O)[C@H](NC(=O)[C@H](CC(=O)O)NC(=O)[C@H](CC(C)C)NC(=O)[C@H](CO)NC(=O)[C@H](CC(C)C)NC(=O)[C@@H](NC(C)=O)C(C)C)C(C)C)[C@@H](C)CC)[C@@H](C)CC)[C@@H](C)O)C(=O)N[C@@H](CC(C)C)C(=O)N[C@@H](C)C(=O)N[C@@H](CCC(N)=O)C(=O)N[C@H](C(N)=O)C(C)C

target: T1, CRF1R receptor; assay: cell-based or functional assay

Binder | Emax (% I) [%]
B1 | 8
B2 | 10
B3 | 5
B4 | 6
B5 | 5
B6 | 5

target: human corticotropin-releasing factor 2a (CRF2a receptor) (human), Q13324; assay: cell-based or functional assay
Sequence (Q13324 20-411): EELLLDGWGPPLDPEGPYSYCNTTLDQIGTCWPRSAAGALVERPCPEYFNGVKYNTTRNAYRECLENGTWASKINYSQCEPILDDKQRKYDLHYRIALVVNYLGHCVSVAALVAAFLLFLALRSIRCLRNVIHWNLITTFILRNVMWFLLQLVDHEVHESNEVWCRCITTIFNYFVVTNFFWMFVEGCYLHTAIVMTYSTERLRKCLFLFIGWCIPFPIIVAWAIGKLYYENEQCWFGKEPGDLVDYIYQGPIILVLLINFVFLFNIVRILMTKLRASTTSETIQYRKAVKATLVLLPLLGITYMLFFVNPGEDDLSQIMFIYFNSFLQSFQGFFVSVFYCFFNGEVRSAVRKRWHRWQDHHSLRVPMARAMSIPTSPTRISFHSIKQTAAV

Binder | EC50 [nM] (cAMP)
B1 | 0.41
B2 | 0.87
B3 | 0.47
B4 | 0.35
B5 | 0.67
B6 | 0.96
